These results are taken from paper PMC8950220, “Impact of Fluorinated Ionic Liquids on Human Phenylalanine Hydroxylase—A Potential Drug Delivery System” (Nanomaterials, 2022).

Data set [1] concerns the molecule itself. Kind of data set: SEC; Superdex 200 Increase 10/300, 20 mM HEPES pH 7.0, 200 mM NaCl, 277.15 K; tetramer fraction isolated.
Data set [2] deals with the molecule itself. Kind of data set: native gel or EMSA; blue native PAGE, NativePAGE 4-16% Bis-Tris gel; hPAH with 0-1.2% v/v [N1112(OH)][C4F9SO3], with and without L-Phe. (In general: In EMSA bound probe runs differently from free probe, usually more slowly.)
Data set [3] deals with the molecule itself. As to the kind of experiment: SAXS; batch mode, 0.9 mg/mL hPAH in 20 mM HEPES pH 7.0, 200 mM NaCl, 0-1.2% v/v [N1112(OH)][C4F9SO3], no L-Phe; volume fractions of oligomers fitted with OLIGOMER

B1: human phenylalanine hydroxylase (enzyme, UniProt P00439 1-452, looked up)
chain: MSTAVLENPGLGRKLSDFGQETSYIEDNCNQNGAISLIFSLKEEVGALAKVLRLFEENDVNLTHIESRPSRLKKDEYEFFTHLDKRSLPALTNIIKILRHDIGATVHELSRDKKKDTVPWFPRTIQELDRFANQILSYGAELDADHPGFKDPVYRARRKQFADIAYNYRHGQPIPRVEYMEEEKKTWGTVFKTLKSLYKTHACYEYNHIFPLLEKYCGFHEDNIPQLEDVSQFLQTCTGFRLRPVAGLLSSRDFLGGLAFRVFHCTQYIRHGSKPMYTPEPDICHELLGHVPLFSDRSFAQFSQEIGLASLGAPDEYIEKLATIYWFTVEFGLCKQGDSIKAYGAGLLSSFGELQYCLSEKPKLLPLELEKTAIQNYTVTEFQPLYYVAESFNDAKEKVRNFAATIPRPFSVRYDPYTQRIEVLDNTQQLKILADSINSEIGILCSALQKIK
notes: human phenylalanine hydroxylase (hPAH), recombinant full-length, each subunit 52 kDa; No step that cleaves the tag is described, and the enzymatic assays name the protein His6-hPAH, so the tag and linker were probably kept; The tetramer fraction from SEC was the starting material of all assays; also called hPAH; His6-hPAH; source: E. coli Top10, purified (Ni-NTA, SEC on Superdex 200 Increase; …)
As usually defined, the stoichiometry N is the number of molecules, sites or subunits per partner or assembly. Turning to B1, the “stoichiometry N” value in data set [1] is 4; in data set [2], 8; in data set [3], 2.
